test: yeast display, Sf9 membrane polyspecificity reagent, FACS + sequencing; frameworks hold sequencing errors
Method in brief: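 Galactose-induced (36–48 hours) yeast carrying a synthetic nanobody display library were exposed to 10% biotinylated, detergent-solubilized Sf9 membrane reagent at 4 °C for 1 hour. FACS followed streptavidin microbead enrichment, using low and high (top ~1%) gates for expression (anti-HA) and reagent binding (streptavidin). Colony PCR, MiSeq 2 × 250 sequencing and CDR-length filtering followed. Labels for polyreactivity reflect the gate of origin.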

Question: For “QVQLVESGGGLVQAGGSLRLSCAASGSIFRNAMGWYRQAPGKERELVATISYRGGSTYYADSVKGRFTISRDNAKNTVYLQMNSLKPEDTAVYYCNADSKLVGYNYWGQGTQVTVSS”, which “polyreactivity (PSR sort gate)” value is on record?
Answer: low polyreactivity

Question: For “QVQLVESGGGLVQAGGSLRLSCAASGRIFATYAMGWYRQAPGKERELVAAISDSGGRTYYADSVKGRFTISRDNAKNTVYLQMNSLKPEDTAVYYCARRAVYGIFDYWGQGTQVTVSS”, which “polyreactivity (PSR sort gate)” value is on record?
Answer: high polyreactivity

Question: With “QVQLVESGGGLVQAGGSLRLSCAASGSTFKYNAMGWYRQAPGKEREFVAAISYSGGSTYYADSVKGRFTISRDYAKNTVYLQMNSLKPEDTAVYYCAAYPWERYTWRYVYRGHDYWGQGTQVTVSS” as the sequence, how does the “polyreactivity (PSR sort gate)” value read?
Answer: low polyreactivity

Question: Which “polyreactivity (PSR sort gate)” value does the source give for “QVQLVESGGGLVQAGGSLRISCAASGRTFYPYAMGWYRQAPGKEREFVAAITLTGDSTYYADSVKGRFTISRDNAKNTVYLQMNSLKPEDTAVYYCNAGVGARESDYWGQGTQLTVSS” here?
Answer: low polyreactivity

Question: With “QVQLVESGGGLVQAGGSLRLSCAASGIIFYGYAMGWYRQAPGKERELVAAISSGGGTNYADSVKGRFTISRDNAKNTVYLQMNSLKPEDTAVYYCAAGGKKRDDYWGQGTQVTVSS” as the sequence, how does the “polyreactivity (PSR sort gate)” value read?
Answer: high polyreactivity

Question: For “QVHLVESGGGLVQAGGSLRISCAASGSTFVYYAMGWYRQAPGTERELVAAISVSGDSTYYADSVKGRFTISRDNAKNTVYLQMNSLKPEDTAVYYCATEVYWTVSYYGYDYYGGNYYYWGQGTQVTVSS”, which “polyreactivity (PSR sort gate)” value is on record?
Answer: low polyreactivity

Question: For “QVQLVESGGGLVQAGGSLRLSCAASGSIFVSNAMGWYRQAPGKERELVAAITARDVSTYYADSVKGRFTISRDNAKNTVYLQMNSLKPEDTAVYYCAGNSSTYPSDDSYDYWGQGTQVTVSS”, which “polyreactivity (PSR sort gate)” value is on record?
Answer: low polyreactivity

Question: Which “polyreactivity (PSR sort gate)” value does the source give for “QVQIVESGGGLVQAGGSLRLSCAASGRTFAYYSMGWYRPAPGKEREFVAAISRSGGSTYYADSVKGRFTISRDNAKNTVYLQMNSLKPEDTAVYYCNARYIWKQYRYDYWGQGTQVTVSS” here?
Answer: high polyreactivity

Question: With “QVQLVESGGGLVQAGGSLRLSCAASGRTFVYYAMVWYRQAPGKERELVATISRRGGGTYYADSVKGRFTISRDNAKNTVYLQMNSLKPEDTAVYYCNAKWTSHGTYAEDYWGQGTQVTVSS” as the sequence, how does the “polyreactivity (PSR sort gate)” value read?
Answer: high polyreactivity

Question: For “QVQLVESGGGLVQAGGSLRLSCAASGSTFDVYAMGWYRQAPGKERELVAAISFSSGSTYYADSVKGRFTISRDNAKNTVYLQMNSLKPEDTAVYYCAARTYRYPYWGYDYWGQGTQVTVSS”, which “polyreactivity (PSR sort gate)” value is on record?
Answer: high polyreactivity

Question: With “QVQLVESGGGLVQAGVSLRLSCAASGKTVYSYAMGWYRQAPGKKRQLVAGISYIGGRTYYADSVKGRFTISRDNAKNTFYLQMNSLNPEDTAFYYCAAVYWYGRRKYYSWGQGTQVTVSS” as the sequence, how does the “polyreactivity (PSR sort gate)” value read?
Answer: high polyreactivity

Question: For “QVQLVESGGGLVQAGGSLRLSCAASGIIFRFYAMGWYRQAPGKERELVAAITSSGGSTYYADSVKGRFTISRDNAKNTVYLQMNSLKPEDTAVYYCATSTGPYRGRFYYWGQGTQVTVSS”, which “polyreactivity (PSR sort gate)” value is on record?
Answer: high polyreactivity

Question: With “QVQLVESGGGLVQAGGSLRLSCAASGFTISRYNMGWYRQAPGKEREMVAAISGSGGSTYYADSVKGRFTISRDNAKNTVYLQMNSLKPEDTAVYYCNAVRNWYYTPWEMNYWGQGTQVTVSS” as the sequence, how does the “polyreactivity (PSR sort gate)” value read?
Answer: high polyreactivity

Question: Which “polyreactivity (PSR sort gate)” value does the source give for “QVQLVESGGGLVQAGGSLRLSCAASGSTFHANAMGWYRQAPGKERELVAAISRSGGSTNYADSVKGRFTISRDNAKNTVYLQMNSLKPEDTAVYYCAKRAWTGYGYYYWGQGTQVTVSS” here?
Answer: high polyreactivity

Question: Which “polyreactivity (PSR sort gate)” value does the source give for “QVQLVDSGGGLVPSGGSLRISCAASGRIFYPYAMGWYRQAPGKEREVVATITRTGSTYYADSVKGRFTISRDNAMNTVYLQMNSLKPEDTAVYYCNAGIYRPRVDYWGQGTQVTVSS” here?
Answer: high polyreactivity

Question: For “QVQLVESGVGLVQAGGSLRLSCAASGITFPGYAMGWYRQAPGKERELVAVIRKSGTSTYYADSVKGRFTISRDNAKNTVYLQMNSLKPEDTAVYYCAAGGPSTLDDYWGQGTQVTVSS”, which “polyreactivity (PSR sort gate)” value is on record?
Answer: low polyreactivity

Question: With “QVQLVESGGGLVQAGGSLRLICAASGGTFSHNDMGWYRQAPGKEMELVASINSGGSTNYADSVKGRFTISRDNAKNTVYLQMNSLKPEDSAVYYCAADVEGWTVESDVYRVGYDYWGHGTQVTVSS” as the sequence, how does the “polyreactivity (PSR sort gate)” value read?
Answer: low polyreactivity

Question: Which “polyreactivity (PSR sort gate)” value does the source give for “QFQLVESGGGLVQAGCSLRLSCAASGRTVGSNDMGWYRQAPRKEMDLFAAIPTTTASTNYADSVKGRFTISRDNAKNTVYFQMNSLKPEDNAVYYCNKQYLWYYWDGTDAEDYWGQGTQVTVSS” here?
Answer: low polyreactivity

Question: Which “polyreactivity (PSR sort gate)” value does the source give for “QVQLVESGGGLVQAGGSLRLSCAASGFTFVYYDMGWYRQAPGKERELVAAISRSGGSTYYADSVKGRFTISRDNAQNTVYLQMNSLKPEDTAVYYCAAGKNYGSRLSYEYWGQGTQVTVSS” here?
Answer: high polyreactivity

Question: With “QVQLVESGGGLVQAGGSLRLSCAASGSTFSWYAMGWYRQAPGKERELVASISFSGGDTSYADSVKGRFTISRDNAKNTVYLQMHSLKPEDSAVYYCGKEYKYETDTKFDYWGQGTQVTVSS” as the sequence, how does the “polyreactivity (PSR sort gate)” value read?
Answer: low polyreactivity

Question: Which “polyreactivity (PSR sort gate)” value does the source give for “QVQLVESGGGLVQAGGSLRLSCAASGFTFRAYAMGWYRQAPGKEREFVAAISRRGGSTSYADSVKGRFTISRDNAKNTVYLQMNSLKPEDTAVYYCAATYQILTTSAHDSWGQGTQVTVSS” here?
Answer: high polyreactivity

Question: Which “polyreactivity (PSR sort gate)” value does the source give for “QVHLVESGGGLVQAGGSLRLSCAASGSIFKKNTLGWYRQAPGKERELVAVISSSGTRTYYADSVKGRFTISRDNAKNTVYLQMNSLKPEDTAVYYCARRAGGERDDYWGQGTQVTVSS” here?
Answer: high polyreactivity

Question: With “QVQLVESGGGLVQAGGSLRLSCAASGFTFHRYDMVWYRQAPGKERELVAGITRRSGSTFYADSVKGRFTISRDNAKNTVYLQMNSLKPEDTAVYYCAATVPGMHWIYDYWGQGTQVTVSS” as the sequence, how does the “polyreactivity (PSR sort gate)” value read?
Answer: high polyreactivity

Question: For “QVQLVESGGGLVQAGGSLRLSCAASGITIYGYAMGWYRQAPGKERELVAAITRSGGRTYYADSVKGRFTISRDNAKNTVYLQMNSLKPEDTAVYYCAKDMNDETAPYYYWGQGTQVTVSS”, which “polyreactivity (PSR sort gate)” value is on record?
Answer: high polyreactivity

Question: Which “polyreactivity (PSR sort gate)” value does the source give for “QVLLVESGGGVVQAGGSLRLSCASSGFTYGSYAMGWYRQAPGKERELVAGITRSSGSTYYADSVKGRFTISRDNAKITDYLQMNSLKPEDTAVYYCRQFSVWGYDYWGQGTKVTVSS” here?
Answer: high polyreactivity

Question: Which “polyreactivity (PSR sort gate)” value does the source give for “QVQLVESGGGLVQAGGSLRLSCAASGSTFYPYAMGWYRQATGKERELVAGISWSGGSTYYADSVKGRFTFSRDNAKNTVYLQMNSLNPEDTAVYYCAVDVYWSVIYDYWGQGTQVTVSS” here?
Answer: low polyreactivity

Question: Which “polyreactivity (PSR sort gate)” value does the source give for “QVQLVESGGGLVQAGGSLRLSCAASGSIFRDNAMGWYRQAPGKERELVAAITDSGGRTYYADSVKGRFTISRDNAKNTVYLQMNSLKPEDTAVYYCAAGQSGYAGRRPAFGYWGQGTQVTVSS” here?
Answer: low polyreactivity

Question: For “QVQLVESGGGLVQAGGSLRLSCAASGSIFCYYAMGWYRQAPGKERELVAAINSGVRTYYADSVKGRFTISRDNAKNTVYLQMISLKPEDTAVYYCAARYIFKGLRYGYWGQGTQVTVSS”, which “polyreactivity (PSR sort gate)” value is on record?
Answer: high polyreactivity

Question: Which “polyreactivity (PSR sort gate)” value does the source give for “QVQLGESGGGLVQAGGSLRLICAASGFTFYDYAMGWYRQEPGKETEFVAAITRSGSSTYYADSVKGRFTISRDNAKNTVYLQMNSLKPEDTAVYYCAVGPFRRRGHYPTYYRYGYWGQGTQVTVSS” here?
Answer: high polyreactivity

Question: With “QVQLVESGGGLVQAGGSLRLSCAASGRIFGYNAMGWYRPAPGNERELVAAISWSGGNTYYADSVKGRFTISRDHAKNTVYLQMNSLKPEDTAVYYCNASPYRYRPSEYDYWGQGTQVTVSS” as the sequence, how does the “polyreactivity (PSR sort gate)” value read?
Answer: high polyreactivity

Question: For “QVQLVESGGGLVQAGGSLRLSCAASGSTSYYNAMGWYRQAPGKERELVAAISYSGGRTYYADSVKGRFTISRDNAKNTVYLQMNSLKPEDTAVYYCAKTFRGQPYLRYRYYYWGQGTQVTVSS”, which “polyreactivity (PSR sort gate)” value is on record?
Answer: high polyreactivity

Question: For “QVQLVESGGGLVQAGGSLRLSCAASGSIFFLYAMGWYRQATGKEREFVAAITGTADSTYYADSVKGRFTISRDDAKNTVYLQMNSLNPEDTAVYYCATDYWSSVKLDDYWGQGTQVTVSS”, which “polyreactivity (PSR sort gate)” value is on record?
Answer: low polyreactivity

Question: For “QVQLVESGGGLLQAGGSLRLSCAASGSIFRYYAMGWYRQAPGKERELVATISTGGRTYYADSVKGRFTISRDNAKNTVYLQMNSLKPEVTAVYYCAAVRLTWTAKYNYWGQGTQVTVSS”, which “polyreactivity (PSR sort gate)” value is on record?
Answer: high polyreactivity

Question: Which “polyreactivity (PSR sort gate)” value does the source give for “QVQLVESGGGLVQAGGSLRLSCAASGGTILYYAMGWYRQAPGKEMELVAAISRGGSTHYADSVKWRFTISRDNAKNTVYLQMNRLKPEDTAVFYCAVDGGEFSSYGYWGHGTQVTVSS” here?
Answer: low polyreactivity

Question: With “QVQLVESGGGLVQAGGSLRLSCAASGIIFGYYAMGWYRQAPGKERELVAAISKRGGSTNYADSVKGRFTISRDNAKNTVYLQMNSLKPEDTAVYYCAARYPQGGTGKATYVRSRSGYWGQGTQVTVSS” as the sequence, how does the “polyreactivity (PSR sort gate)” value read?
Answer: high polyreactivity

Question: For “QVQLVESGGGLVQAGGSLRLSCAASGSTFVIYAMGWYRQAPGKERELVAAIRRRGGSTYYADSVKGRFTISRDNAKNTVYLQMNSLKPEDSAVYYCATAGQGAFWGQGTQVTVSS”, which “polyreactivity (PSR sort gate)” value is on record?
Answer: high polyreactivity

Question: With “QVQLVESGGGLVQAGGSLRLSCAASGSIFVQYAMGWYRQAPGNERELVAAISNRGGSTYYADSVKGRFTISRDNAKNTVYLQMNSLKPEDTAVYYCAARKYWGYGTRYYYWGQGTQVTVSS” as the sequence, how does the “polyreactivity (PSR sort gate)” value read?
Answer: high polyreactivity

Question: For “QVQLVESGGGLVQAGGSLRLSCAASGRTFSSYTMGWYIQAPGKEMELVAAISWRGGSTYYADSVKGRFTISSDNAKNTVYLQMNSLKPEDTAVYYCAARSYLTPDYYYWGQGTQVNVSS”, which “polyreactivity (PSR sort gate)” value is on record?
Answer: high polyreactivity

Question: With “QVQLVESGGGVVQAGGSLRLSCAASGITIEANAMGLYRQAPGKERELVAAIDRSGGSKYYADSVKGRFTISRDNAKNTVYLQMNSLKPEDTAVYYCAADGRASVGGLGDDYWGQGTQVTVSS” as the sequence, how does the “polyreactivity (PSR sort gate)” value read?
Answer: low polyreactivity

Question: Which “polyreactivity (PSR sort gate)” value does the source give for “QVQLVESGGGLVQAGGSQRLSCDSSGSTFRYYAMGWYRPAPGKQRELVAVITWNGGGTYYADSMKGRFTISRDNAKNNVYLHMNSLKPVDTAVYYCAADASLYTDEYDNWGLGTQVTVSS” here?
Answer: low polyreactivity

Question: Which “polyreactivity (PSR sort gate)” value does the source give for “QVQLVESGGGLVQAGGSLRLSCAASGITFSRNAMGWYRQAPGKERELVAVISTRGGRTYYADSVKGRFTISRDNAKNTVYLQMISLKPEDTAVYYCAASPDPYWRRMDYWGQGTQVTVSS” here?
Answer: high polyreactivity

Question: For “QFQLVESGGGLVQAGGSLRLSCAASGFIFKPYTMGWYRQAPGKERELVATITFSGGSTYYADSVKGRFTNSRDNAKNTVYLQMNSLKPEDTAVYYCAAPRFYRGYAIYDYWGQGTQVTVSS”, which “polyreactivity (PSR sort gate)” value is on record?
Answer: low polyreactivity

Question: For “QVQLVESGGGLVQAGGSLRLSCAASGSTFRGYAMGWYRQAPGKERELVAASTWSGVTTYYADSVKGRFTISRDNAKNNVYLQMHSLKPEDTAVYYCATGTLYSDGAIYGYWGQGTQVTVSS”, which “polyreactivity (PSR sort gate)” value is on record?
Answer: low polyreactivity

From the nanobody polyreactivity screen of Harvey et al. (2022)
